Paper PMC9122904, “Insights into the client protein release mechanism of the ATP-independent chaperone Spy” (Nature Communications, 2022)
Residue numbers refer to the chain shown, from its start. Names and notes keep the numbering of the source.

What was measured:
Test in all cases: BLI; Octet RED96; client biotinylated and loaded on streptavidin sensors; Spy or Spy variant in solution at 0.25, 0.5, 1, 1.5 and 2 μM; 40 mM HEPES, 150 mM NaCl, pH 7.5; Kd calculated as koff/kon
Settings in all cases: both partners purified
Spy_(29-124) R43D = biological target: T1, Spy_(29-124) R43D (UniProt P77754 52-147, R43D)
T1 construct: source: E. coli BL21 (DE3), purified (Ni-NTA, cation exchange, SEC); not shown: His6, N-terminal, cleaved; SUMO, N-terminal, cleaved
T1 sequence (looked up): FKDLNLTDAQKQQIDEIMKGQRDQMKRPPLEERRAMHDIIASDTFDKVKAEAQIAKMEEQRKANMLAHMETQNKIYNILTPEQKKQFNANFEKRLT

Spy_(29-124) R50D = biological target: T2, Spy_(29-124) R50D (UniProt P77754 52-147, R50D)
T2 construct: source: E. coli BL21 (DE3), purified (Ni-NTA, cation exchange, SEC); not shown: His6, N-terminal, cleaved; SUMO, N-terminal, cleaved
T2 sequence (looked up): T1 sequence (looked up) with D15R, R22D

Spy_(29-124) K54D R55D = biological target: T3, Spy_(29-124) K54D R55D (UniProt P77754 52-147, K54D | R55D)
T3 construct: source: E. coli BL21 (DE3), purified (Ni-NTA, cation exchange, SEC); not shown: His6, N-terminal, cleaved; SUMO, N-terminal, cleaved
T3 sequence (looked up): T1 sequence (looked up) with D15R, K26D, R27D

Spy_(29-124) K75D = biological target: T4, Spy_(29-124) K75D (UniProt P77754 52-147, K75D)
T4 construct: source: E. coli BL21 (DE3), purified (Ni-NTA, cation exchange, SEC); not shown: His6, N-terminal, cleaved; SUMO, N-terminal, cleaved
T4 sequence (looked up): T1 sequence (looked up) with D15R, K47D

Spy_(29-124) R89D = biological target: T5, Spy_(29-124) R89D (UniProt P77754 52-147, R89D)
T5 construct: source: E. coli BL21 (DE3), purified (Ni-NTA, cation exchange, SEC); not shown: His6, N-terminal, cleaved; SUMO, N-terminal, cleaved
T5 sequence (looked up): T1 sequence (looked up) with D15R, R61D

Spy_(29-124) H96D = biological target: T6, Spy_(29-124) H96D (UniProt P77754 52-147, H96D)
T6 construct: source: E. coli BL21 (DE3), purified (Ni-NTA, cation exchange, SEC); not shown: His6, N-terminal, cleaved; SUMO, N-terminal, cleaved
T6 sequence (looked up): T1 sequence (looked up) with D15R, H68D

Spy_(29-124) K121D R122D = biological target: T7, Spy_(29-124) K121D R122D (UniProt P77754 52-147, K121D | R122D)
T7 construct: source: E. coli BL21 (DE3), purified (Ni-NTA, cation exchange, SEC); not shown: His6, N-terminal, cleaved; SUMO, N-terminal, cleaved
T7 sequence (looked up): T1 sequence (looked up) with D15R, K93D, R94D

Spy D26E = biological target: T8, Spy D26E (UniProt P77754 24-161, D26E)
T8 construct: source: E. coli BL21 (DE3), purified (Ni-NTA, cation exchange, SEC); not shown: His6, N-terminal, cleaved; SUMO, N-terminal, cleaved
T8 sequence (looked up): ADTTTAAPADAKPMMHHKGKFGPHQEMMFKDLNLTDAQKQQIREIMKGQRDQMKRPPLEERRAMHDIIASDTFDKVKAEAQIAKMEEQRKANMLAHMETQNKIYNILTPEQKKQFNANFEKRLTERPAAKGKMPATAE

Spy D26A = biological target: T9, Spy D26A (UniProt P77754 24-161, D26A)
T9 construct: source: E. coli BL21 (DE3), purified (Ni-NTA, cation exchange, SEC); not shown: His6, N-terminal, cleaved; SUMO, N-terminal, cleaved
T9 sequence (looked up): T8 sequence (looked up) with E26A

Spy D26K = biological target: T10, Spy D26K (UniProt P77754 24-161, D26K)
T10 construct: source: E. coli BL21 (DE3), purified (Ni-NTA, cation exchange, SEC); not shown: His6, N-terminal, cleaved; SUMO, N-terminal, cleaved
T10 sequence (looked up): T8 sequence (looked up) with E26K

koff (Spy_(29-124) R43D): 0.601 s⁻¹
koff (Spy_(29-124) R50D): 0.477 s⁻¹
koff (Spy_(29-124) K54D R55D): 0.239 s⁻¹
koff (Spy_(29-124) K75D): 0.0712 s⁻¹
koff (Spy_(29-124) R89D): 0.125 s⁻¹
koff (Spy_(29-124) H96D): 0.234 s⁻¹
koff (Spy_(29-124) K121D R122D): 0.349 s⁻¹
Kd (Spy D26E): 637 nM
Kd (Spy D26A): 274 nM
Kd (Spy D26K): 257 nM
B1: Im7 H40W L53A I54A (natural protein)
chain: MELKNSISDYTEAEFVQLLKEIEKENVAATDDVLDVLLEWFVKITEHPDGTDAAYYPSDNRDDSPEGIVKEIKEWRAANGKPGFKQG
modifications: biotin (EZ-link NHS-biotin, 1:1 molar ratio of biotin to protein)
notes: Im7 (colicin E7 immunity protein) with H40W L53A I54A; Spy was made with an N-terminal His6-SUMO tag that was cleaved; also called Im7AAW; partially folded client; source: purified by a similar procedure to Spy
